Assay results as given in the Human Domainome abundance scans (Beltran et al. 2025).

B1: POU domain, class 3, transcription factor 3, residues 320 to 388; numbered along this chain, P20264 (parent)
chain: DDLEQFAKQFKQRRIKLGFTQADVGLALGTLYGNVFSQTTICRFEALQLSFKNMCKLKPLLNKWLEEAD

Variants of: B1
Experiment: abundance fitness (aPCA) (normalised: wild type 0, dead -1); higher = more abundant; growth selection in yeast, the domain comes from the species named
Conditions: Homo sapiens

Abundance fitness: each site, then its substitutions
F10: Q -0.698 | N -0.705 | W -0.636 | M -0.631 | S -0.846 | G -0.288 | T -0.488 | K -0.365 | A -0.776 | Y -0.631 | C -0.338 | R -0.543 | P -0.896 | V -0.885
K11: V -0.856 | L -0.944 | A -0.298 | S -0.541 | G -0.926 | T -0.39 | Q -0.106 | P -0.888 | R -0.087 | M -0.386 | W -0.753
Q9: N 0.038 | I -0.425 | E 0.042 | T 0.029 | S -0.107 | A -0.241 | R -0.222 | M 0.128 | Y 0.052 | L -0.223 | V -0.231 | W -0.2 | C -0.457 | K -0.046 | G -0.205
L26: G -0.227 | D -0.016 | S 0.071 | R 0.128 | C -0.045 | M 0.058 | A 0.005 | E 0.133 | T -0.515 | V -0.147 | K -0.076 | W -0.24 | Q 0.017 | Y 0.035
R13: T -0.561 | G -0.745 | M -0.578 | V -0.311 | W -0.697 | Q -0.32 | P -0.865 | L -0.824 | N -0.698 | E -0.311 | I -0.771 | S -0.582 | Y -0.651 | K -0.062 | H -0.263 | A -0.385
Y32: R -0.44 | Q -0.102 | P -0.685 | M -0.647 | K -0.559 | V -0.557 | G -0.225 | L 0.017 | W -0.276 | E -0.335 | S 0.108 | D -0.352 | T -0.526 | H -0.099 | A -0.412
K16: S -0.33 | E -0.382 | F -0.569 | Q -0.043 | M -0.282 | D -0.102 | A 0.004 | Y -0.088 | R -0.088 | C -0.543 | T 0.021 | W -0.696 | L -0.064
D23: Y -0.778 | E -0.023 | N -0.687 | G -0.185 | S -0.743 | Q 0.039 | K -0.764 | R -0.187 | M -0.802 | V -0.937 | I -0.704 | P -1.04 | F -0.998
G25: N -0.753 | R -0.3 | Q -0.682 | V -0.815 | M -0.754 | T -0.36 | C 0.103 | A 0.161 | S -0.069
G33: P -0.204 | F -0.766 | A -0.382 | H -0.753 | I -0.7 | S -0.885 | Y -0.523 | V -1.09 | L -0.922 | W -0.722 | D -0.545 | Q -0.263 | M -0.792
A22: T -0.162 | L -0.49 | G -0.25 | E -0.17 | K 0.103 | S -0.243 | R -0.163 | Q 0.036 | V -0.513 | P -0.849 | I -0.392 | H 0.228 | F -0.293 | W -0.83
T20: W -0.862 | L -0.828 | P -0.627 | R -0.908 | K -0.738 | G -0.556 | S -0.079 | A -0.556 | V -1.02
A27: E -0.375 | H -0.022 | Y -0.502 | V -0.509 | C 0.232 | K 0.021 | M -0.427 | G -0.262 | P -0.8 | W -0.101 | Q 0.228 | S -0.239 | D -0.613 | L -0.456 | I -0.711 | R 0.031
T30: E -0.177 | R -0.08 | N -0.348 | Q 0.1 | D -0.062 | F -0.514 | V -0.034 | M -0.077 | I -0.446 | S 0.01 | Y -0.459 | A 0.063 | P -0.115 | G -0.013 | W -0.421 | K 0.336 | L -0.325 | H -0.232
Q12: K -0.276 | T -0.283 | F -0.654 | S -0.143 | G -0.636 | E -0.044 | Y -0.176 | A -0.1 | M -0.409 | C -0.438 | L -0.201 | D -0.23 | W -0.146 | V -0.265 | P -0.694 | R -0.124 | I -0.594
G18: S -0.906 | P -0.964 | M -0.778 | N -0.029 | A -0.542 | E -0.893 | L -0.935 | W -1.06 | V -0.851 | H -0.749 | R -0.532 | K -0.546 | Q -0.785
V24: I -0.766 | S -0.941 | P -0.673 | F 0.197 | K -0.899 | L -0.679 | R -0.788 | C -0.531 | N -0.74 | D -0.882 | A -0.677 | W -1.05
L31: S -0.137 | Q -0.116 | M -0.156 | W -0.387 | K -0.118 | G -0.565 | I 0.076 | Y -0.334 | D -0.017 | P -0.551 | H -0.229 | F -0.023 | C -0.237 | A -0.299 | V -0.195 | R 0.031
L28: M -0.594 | V -0.703 | N -0.71 | W -0.981 | K -0.682 | R -1.02 | G -0.943 | S -0.94 | Q -0.747 | T -0.8 | A -0.639
I15: W -0.751 | L -0.252 | Q -0.052 | F -0.249 | H -0.875 | K -0.336 | G -0.778 | S -0.17 | R -0.421 | E 0.058 | P -0.501 | M -0.426
F19: V -0.236 | P -0.625 | L -0.202 | G -1.03 | I 0.119 | A -0.243 | E -0.495 | S -0.848 | W -0.408 | R -0.466 | K -0.426
N34: A -0.036 | E 0.136 | D -0.085 | C 0.307
R14: Q -0.861 | L -0.783 | W -0.944 | G -0.871 | V -0.751 | M -0.954 | A -0.823 | E -0.859 | Y -0.764 | S -0.813 | C -0.681 | F -0.829 | T -0.939
G29: D -0.736 | T -0.004 | E -0.02 | L -0.929 | S 0.092 | V -0.468 | F -0.388 | C -0.594 | A 0.056 | K -0.01 | Y -0.108 | P -0.658 | H -0.154 | I -0.464 | Q -0.554 | W -0.478 | M -0.427 | N 0.041 | R 0.02
Q21: P -0.23 | V -0.017 | S -0.242 | T -0.507 | E -0.061 | I 0.145 | L -0.271 | R -0.184 | M -0.489 | Y -0.147 | G -0.629 | A -0.281 | H -0.08 | W -0.284 | K -0.298 | C -0.278
